Results as given in paper PMC2820103 (Biochemistry, 2009).

Biological target: the molecule itself
Test: SEC

B1: Benzylsuccinate synthase α subunit (BSS-α) with a C-terminal His6 tag (natural protein, Thauera aromatica T1, UniProt O68395 1-864, looked up)
chain: MNDIVSAKVLEYKGKKLNFTPEDPAEETIPADELHEHLQKPSTARTKRLKERCRWKHASAGEFIEKSVTAGIERMRYLTEAHKASEGKPEAIRRALGLANVLNKSTLVLQEDEFIVGYHAEDPNMFPLYPELSHMAVQDYLRSDYSPQPADEAAAINEYWKPHSLQSKCQPYFDPADLGRMYQVSSMEAPSFASGYNSIVPPYETVLEDGLLARIKLAEKHIAEAQADMSTFPWNGTKGLDNIAKIDNWKAMVIACKAVISWARRQGRLCKIVAENFETDPKRQAELLEIADICQRIPAEPCKGLKDAMQAKFFTFLICHAIERYASGYAQKEDTLLWPYYKASVVDKKFQPMSHMDAVELVEMERLKISEHGAGKSRAYREIFPGSNDLFILTVGGTNAKGEDACNDMTDAILEAAKRIRTAEPSIVFRYSKKNREKTLRWVFECIRDGLGYPSIKHDEIGTEQMKEYAKFSLNGNGATDEEAHNWVNVLCMSPGIHGRRKTQKTRSEGGGSIFPAKLLEISLNDGYDWSYADMQLGPKTGDLSSLKSFEDVWEAFRKQYQYAINLCISTKDVSRYFEQRFLQMPFVSAIDDGCMELGMDACALSEQPNGWHNPITTIVAANSLVAIKKLVFEEKKYTLEQLSQALKANWEGFEEMRVDFKRAPKWGNDDDYADGIITRFYEEIIGGEMRKITNYSGGPVMPTGQAVGLYMEVGSRTGPTPDGRFGGEAADDGGISPYMGTDKKGPTAVLRSVSKVQKNQKGNLLNQRLSVPIMRSKHGFEIWNSYMKTWHDLNIDHVQFNVVSTDEMRAAQREPEKHHDLIVRVSGYSARFVDIPTYGQNTIIARQEQDFSASDLEFLNVEI
In the case of B1, the “stoichiometry N” value is reported as 2.
